Experimental data published in patent US20240209367.

Molecular target: C3b

B1: Complement Factor I (FI) (protein)
chain: KVTYTSQEDLVEKKCLAKKYTHLSCDKVFCQPWQRCIEGTCVCKLPYQCPKNGTAVCATNRRSFPTYCQQKSLECLHPGTKFLNNGTCTAEGKFSVSLKHGNTDSEGIVEVKLVDQDKTMFICKSSWSMREANVACLDLGFQQGADTQRRFKLSDLSINSTECLHVHCRGLETSLAECTFTKRRTMGYQDFADVVCYTQKADSPMDDFFQCVNGKYISQMKACDGINDCGDQSDELCCKACQGKGFHCKSGVCIPSQYQCNGEVDCITGEDEVGCAGFASVTQEETEILTADMDAERRRIKSLLPKLSCGVKNRMHIRRKRIVGGKRAQLGDLPWQVAIKDASGITCGGIYIGGCWILTAAHCLRASKTHRYQIWTTVVDWIHPDLKRIVIEYVDRIIFHENYNAGTYQNDIALIEMKKDGNKKDCELPRSIPACVPWSPYLFQPNDTCIVSGWGREKDNERVFSLQWGEVKLISNCSKFYGNRFYEKEMECAGTYDGSIDACKGDSGGPLVCMDANNVTYVWGVVSWGENCGKPEFPGVYTKVANYFDWISYHVGRPFISQYNV
- in vitro C3b breakdown assay (C3b incubated with FI and a fragment of cofactor CR1; time course by gel electrophoresis and GluC/SRM-MS): the formation of C3b fragments iC3b, C3f and C3c, and loss of intact C3b can be clearly detected over time
